± gives the standard deviation of the averaged measurements.
Test system: ATP
Assay: switch fluorescence ratio, 500 uM ATP over buffer (Cy3 cluster intensity, sum of 5 cycles each) (fold (ratio)); higher = stronger signal-on switching upon ATP binding; sequences stand for … in TCGTCGGCAGCGTCAGATGTGTATAAGAGACAGTTTTTTTTTTTTTTTTTTTTTTTTT…TC
Details: aptamer strand: ATP DNA aptamer (quencher-CACCTGGGGGAGTATTGCGGAGGAAGG + anchor), 100 nM annealed; ATP concentration: 500 uM
Procedure, shortened: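 The quencher-labelled ATP aptamer, at 100 nM, was annealed to Cy3-labelled switching-strand clusters on a modified Illumina MiSeq flow-cell. The clusters were imaged in selection buffer, then after 15 min with 500 uM ATP at 22 °C, and this buffer/ATP cycle ran five times with NaOH stripping and re-annealing between runs. Per-cluster fluorescence ratios, summed target-cycle over summed buffer-cycle Cy3 intensity, were averaged per switch-domain sequence. Clusters outside 100-1000 RFU were excluded.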
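Note: ATP exposure 15 min at 22 °C before imaging.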

Row | Sequence | switch fluorescence ratio
1 | CCTGGTAAGT | 1.04 ± 0.051
2 | CCTGGTGGGA | 0.999 ± 0.014
3 | CCTGTCATGT | 1.02 ± 0.013
4 | CCTGTGAGGT | 1.01 ± 0.045
5 | CCTGTGTTCG | 1 ± 0.025
6 | CCTGTTAGCT | 1.15 ± 0.076
7 | CCTGTTTTAT | 0.9953 ± 0.0051
8 | CCTGTTTTCG | 1.06 ± 0.05
9 | CCTGTTTTTA | 0.986 ± 0.024
10 | CCTTACAGCT | 1.2 ± 0.044
11 | CCTTAGGGGC | 1.03 ± 0.026
12 | CCTTATAAA | 1 ± 0.018
13 | CCTTATTAGT | 0.984 ± 0.012
14 | CCTTATTGGG | 1.05 ± 0.037
15 | CCTTCTTGGG | 1.015 ± 0.0033
16 | CCTTGCCGTT | 0.99 ± 0.017
17 | CCTTGGGTAT | 1.01 ± 0.034
18 | CCTTGGGTTG | 1.03 ± 0.032
19 | CCTTTAAAAT | 1.4 ± 0.41
20 | CCTTTGAGAT | 1.03 ± 0.022
21 | CCTTTGGGGT | 1.69 ± 1.2
22 | CCTTTGTTTT | 1.05 ± 0.091
23 | CCTTTTAGGT | 0.9846 ± 0.0043

Row | Sequence | switch fluorescence ratio
24 | CCTTTTCGAG | 1.037 ± 0.0025
25 | CCTTTTCGCG | 1.106 ± 0.0051
26 | CCTTTTGGAT | 1.07 ± 0.073
27 | CCTTTTGGCT | 0.964 ± 0.014
28 | CGAAAAGAGG | 1.1 ± 0.26
29 | CGAAAAGGGA | 1.01 ± 0.029
30 | CGAAAATGCC | 1.02 ± 0.023
31 | CGAAAATTCA | 1.02 ± 0.0077
32 | CGAAAATTCG | 1.03 ± 0.048
33 | CGAAACCGAC | 2.17 ± 1.2
34 | CGAAAGGCTA | 1.15 ± 0.18
35 | CGAAAGGGGA | 1.03 ± 0.018
36 | CGAAATATCT | 1.04 ± 0.058
37 | CGAAATTGTG | 1.02 ± 0.022
38 | CGAACTGAAG | 0.975 ± 0.026
39 | CGAACTTGTT | 1.01 ± 0.04
40 | CGAAGACTGC | 1.19 ± 0.12
41 | CGAAGAGGAG | 0.981 ± 0.011
42 | CGAAGCATTT | 3.73 ± 0.14
43 | CGAAGGGCG | 1.03 ± 0.029
44 | CGAAGTACCG | 1.08 ± 0.011
45 | CGAAGTGGGG | 1.01 ± 0.026
46 | CGAAGTGGTC | 0.995 ± 0.059

Row | Sequence | switch fluorescence ratio
47 | CGAAGTGTTT | 1 ± 0.02
48 | CGAAGTTTGC | 1.23 ± 0.33
49 | CGAATAGCTT | 1.01 ± 0.062
50 | CGAATGCGTT | 0.973 ± 0.021
51 | CGAATGGGGT | 0.985 ± 0.039
52 | CGAATGGTAA | 1.05 ± 0.051
53 | CGAATTAGTT | 0.978 ± 0.045
54 | CGAATTTAAG | 1.009 ± 0.0062
55 | CGAATTTTAT | 0.976 ± 0.039
56 | CGAATTTTTT | 0.9539 ± 0.0064
57 | CGACACCGTT | 1.03 ± 0.056
58 | CGACACTATT | 1.06 ± 0.034
59 | CGACAGGTTC | 1.0621 ± 0.00069
60 | CGACCATAGA | 1.07 ± 0.045
61 | CGACCATAGC | 1.84 ± 0.19
62 | CGACCGGGGA | 1.04 ± 0.011
63 | CGACCGTAAA | 1.5 ± 0.14
64 | CGACCTTGCT | 1.55 ± 0.26
65 | CGACGACTGG | 1.01 ± 0.017
66 | CGACGGGGGG | 1 ± 0.017
67 | CGACGGTTGG | 0.967 ± 0.013
68 | CGACTATTTT | 1.01 ± 0.045
69 | CGACTTGGTA | 0.9766 ± 0.0011

Row | Sequence | switch fluorescence ratio
70 | CGAGAATGTT | 1.07 ± 0.1
71 | CGAGAGGAAA | 0.9804 ± 0.0046
72 | CGAGAGGAGC | 0.998 ± 0.073
73 | CGAGAGGGAG | 1.004 ± 0.0015
74 | CGAGAGGGGT | 1.02 ± 0.044
75 | CGAGAGTGCG | 0.962 ± 0.023
76 | CGAGAGTTTT | 0.985 ± 0.032
77 | CGAGCGATGG | 1.94 ± 0.074
78 | CGAGGAGGGG | 0.995 ± 0.02
79 | CGAGGCAGGT | 1.51 ± 0.093
80 | CGAGGCATTA | 4.8 ± 1.4
81 | CGAGGGACGG | 0.992 ± 0.024
82 | CGAGGGATTC | 1.12 ± 0.048
83 | CGAGGGGAAG | 0.992 ± 0.022
84 | CGAGGGGGAG | 1.004 ± 0.0097
85 | CGAGGGTATG | 1.01 ± 0.027
86 | CGAGGGTGGC | 0.96 ± 0.11
87 | CGAGGGTTAT | 1.005 ± 0.0054
88 | CGAGGTACGT | 0.9867 ± 0.0046
89 | CGAGGTGTGT | 1.009 ± 0.0022
90 | CGAGTCAGTG | 0.979 ± 0.065
91 | CGAGTGTCGG | 0.984 ± 0.02
92 | CGAGTTCCTT | 1.02 ± 0.014

Row | Sequence | switch fluorescence ratio
93 | CGAGTTGGAC | 1.0038 ± 0.00091
94 | CGATAAACGG | 1.03 ± 0.022
95 | CGATAAGGGG | 1.02 ± 0.018
96 | CGATACCTTT | 1.003 ± 0.0086
97 | CGATAGAAAG | 1.01 ± 0.024
98 | CGATAGGCGT | 0.9927 ± 0.0032
99 | CGATAGGTAG | 0.994 ± 0.018
100 | CGATAGGTGG | 0.975 ± 0.094
101 | CGATATAAGA | 0.998 ± 0.054
102 | CGATATACTG | 1.09 ± 0.074
103 | CGATATAGGC | 0.959 ± 0.018
104 | CGATATCGC | 1.03 ± 0.014
105 | CGATATGTTT | 1.01 ± 0.079
106 | CGATATTGGT | 1 ± 0.017
107 | CGATCAAAAC | 1.26 ± 0.31
108 | CGATCATAGG | 1.01 ± 0.049
109 | CGATCATGGT | 0.994 ± 0.011
110 | CGATCCCATT | 1.05 ± 0.037
111 | CGATCTGCTC | 1.06 ± 0.025
112 | CGATGGAGTG | 0.983 ± 0.027
113 | CGATGGGAAA | 1.01 ± 0.014
114 | CGATGGGATC | 1.13 ± 0.0074
115 | CGATGGGCAG | 1.04 ± 0.061

Row | Sequence | switch fluorescence ratio
116 | CGATGGGGGT | 1 ± 0.026
117 | CGATGGGTTT | 0.969 ± 0.0062
118 | CGATGGTGTC | 1.01 ± 0.036
119 | CGATGGTTGG | 1.03 ± 0.07
120 | CGATGTTCAC | 1.05 ± 0.011
121 | CGATGTTGAG | 1.002 ± 0.01
122 | CGATTAAAGT | 0.997 ± 0.031
123 | CGATTCTTAA | 0.996 ± 0.011
124 | CGATTGAGCA | 0.994 ± 0.031
125 | CGATTGCAG | 1.0118 ± 0.00044
126 | CGATTGGTGT | 1.02 ± 0.021
127 | CGATTGTTGA | 1.01 ± 0.037
128 | CGATTTAATA | 1.01 ± 0.051
129 | CGATTTAGCG | 0.9773 ± 0.009
130 | CGATTTCAGG | 1.02 ± 0.036
131 | CGATTTGGCA | 1.01 ± 0.0076
132 | CGATTTGTGT | 0.984 ± 0.011
133 | CGATTTTCGT | 0.998 ± 0.044
134 | CGATTTTGAG | 0.9768 ± 0.0076
135 | CGCAAAGGGC | 2.12 ± 1.4
136 | CGCAACTATG | 1.56 ± 0.026
137 | CGCAATTAGG | 3.97 ± 0.46
138 | CGCACAGCAC | 1.59 ± 0.023

Row | Sequence | switch fluorescence ratio
139 | CGCAGCCCAG | 1.58 ± 0.086
140 | CGCAGGGGGT | 1.01 ± 0.039
141 | CGCAGTAGTG | 1.16 ± 0.032
142 | CGCATAGAAA | 1.02 ± 0.045
143 | CGCATAGGCC | 1.77 ± 0.2
144 | CGCATCAACG | 1.18 ± 0.087
145 | CGCATCTGGG | 1.09 ± 0.017
146 | CGCATGGGGG | 1.08 ± 0.011
147 | CGCATGTCTT | 1.07 ± 0.0029
148 | CGCATTTAGA | 1.04 ± 0.047
149 | CGCATTTGCT | 1.15 ± 0.07
150 | CGCCATTGTT | 1.01 ± 0.011
151 | CGCCCCGGCC | 1.06 ± 0.097
152 | CGCCCCTTGC | 1.17 ± 0.031
153 | CGCCCTCTCC | 2.18 ± 0.23
154 | CGCCGAATCT | 0.961 ± 0.042
155 | CGCCGGCACT | 0.992 ± 0.027
156 | CGCCGGGAGA | 1.05 ± 0.036
157 | CGCCGGGGGA | 1.05 ± 0.036
